Reference: paper PMC10713552 (Communications Biology, 2023)

B1: 0324-LN3_T65H (antibody, V domains shown)
VH: QVQLQQWGPGLVNPSETLSLTCSVSGGSFATENYYWSWIRQHPGEGLEWIGNIYFSGNHYYNPSLNNRFTISFDTSKNHLSLKLPSVTAADTAVYYCARGTIYFDLSGYRRVDPFHIWGQGTMVIVSS
VL: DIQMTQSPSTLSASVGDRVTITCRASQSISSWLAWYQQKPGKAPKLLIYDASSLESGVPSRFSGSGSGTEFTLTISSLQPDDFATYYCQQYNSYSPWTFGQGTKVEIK
notes: source: Expi293F, transfected
B2: 0364-N3_T65K (antibody, V domains shown)
VH: QVQLQQWGPGLVNPSETLSLTCSVSGGSFATENYYWSWIRQHPGEGLEWIGNIYFSGNKYYNPSLNNRFTISFDTSKNHLSLKLPSVTAADTAVYYCARGTIYFDRSGYRRVDPFHIWGQGTMVIVSS
VL: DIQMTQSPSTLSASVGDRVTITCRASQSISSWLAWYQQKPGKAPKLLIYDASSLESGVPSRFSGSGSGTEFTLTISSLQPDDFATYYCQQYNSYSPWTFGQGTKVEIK
notes: source: Expi293F, transfected
B3: 0316-IN3_T65V (antibody, V domains shown)
VH: QVQLQQWGPGLVNPSETLSLTCSVSGGSFATENYYWSWIRQHPGEGLEWIGNIYFSGNVYYNPSLNNRFTISFDTSKNHLSLKLPSVTAADTAVYYCARGTIYFDISGYRRVDPFHIWGQGTMVIVSS
VL: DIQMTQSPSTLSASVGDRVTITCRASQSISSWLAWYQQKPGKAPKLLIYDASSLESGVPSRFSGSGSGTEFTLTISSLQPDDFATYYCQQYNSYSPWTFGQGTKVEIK
notes: source: Expi293F, transfected
B4: 0313-IN3_T65R (antibody, V domains shown)
VH: QVQLQQWGPGLVNPSETLSLTCSVSGGSFATENYYWSWIRQHPGEGLEWIGNIYFSGNRYYNPSLNNRFTISFDTSKNHLSLKLPSVTAADTAVYYCARGTIYFDISGYRRVDPFHIWGQGTMVIVSS
VL: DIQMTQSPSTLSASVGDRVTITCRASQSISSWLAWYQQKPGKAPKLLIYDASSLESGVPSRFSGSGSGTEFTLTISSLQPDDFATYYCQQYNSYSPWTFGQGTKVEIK
notes: source: Expi293F, transfected
B5: 0308-IN3_T65L (antibody, V domains shown)
VH: QVQLQQWGPGLVNPSETLSLTCSVSGGSFATENYYWSWIRQHPGEGLEWIGNIYFSGNLYYNPSLNNRFTISFDTSKNHLSLKLPSVTAADTAVYYCARGTIYFDISGYRRVDPFHIWGQGTMVIVSS
VL: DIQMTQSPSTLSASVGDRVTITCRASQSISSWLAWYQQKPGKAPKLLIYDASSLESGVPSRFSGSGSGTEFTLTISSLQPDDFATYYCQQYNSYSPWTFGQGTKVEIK
notes: source: Expi293F, transfected
B6: 0314-IN3_T65S (antibody, V domains shown)
VH: QVQLQQWGPGLVNPSETLSLTCSVSGGSFATENYYWSWIRQHPGEGLEWIGNIYFSGNSYYNPSLNNRFTISFDTSKNHLSLKLPSVTAADTAVYYCARGTIYFDISGYRRVDPFHIWGQGTMVIVSS
VL: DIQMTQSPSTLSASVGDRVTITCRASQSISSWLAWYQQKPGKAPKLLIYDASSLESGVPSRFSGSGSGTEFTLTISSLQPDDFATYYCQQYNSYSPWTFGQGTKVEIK
notes: source: Expi293F, transfected
B7: 0310-IN3_T65N (antibody, V domains shown)
VH: QVQLQQWGPGLVNPSETLSLTCSVSGGSFATENYYWSWIRQHPGEGLEWIGNIYFSGNNYYNPSLNNRFTISFDTSKNHLSLKLPSVTAADTAVYYCARGTIYFDISGYRRVDPFHIWGQGTMVIVSS
VL: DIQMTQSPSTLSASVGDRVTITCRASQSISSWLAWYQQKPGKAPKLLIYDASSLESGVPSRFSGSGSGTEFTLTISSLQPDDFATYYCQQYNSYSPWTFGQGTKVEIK
notes: source: Expi293F, transfected
B8: 0390-YN3_T65S (antibody, V domains shown)
VH: QVQLQQWGPGLVNPSETLSLTCSVSGGSFATENYYWSWIRQHPGEGLEWIGNIYFSGNSYYNPSLNNRFTISFDTSKNHLSLKLPSVTAADTAVYYCARGTIYFDYSGYRRVDPFHIWGQGTMVIVSS
VL: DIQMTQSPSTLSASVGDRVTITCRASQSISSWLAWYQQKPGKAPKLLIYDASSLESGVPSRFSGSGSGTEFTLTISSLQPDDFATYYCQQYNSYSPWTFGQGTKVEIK
notes: source: Expi293F, transfected
B9: 0333-LN3_T65S (antibody, V domains shown)
VH: QVQLQQWGPGLVNPSETLSLTCSVSGGSFATENYYWSWIRQHPGEGLEWIGNIYFSGNSYYNPSLNNRFTISFDTSKNHLSLKLPSVTAADTAVYYCARGTIYFDLSGYRRVDPFHIWGQGTMVIVSS
VL: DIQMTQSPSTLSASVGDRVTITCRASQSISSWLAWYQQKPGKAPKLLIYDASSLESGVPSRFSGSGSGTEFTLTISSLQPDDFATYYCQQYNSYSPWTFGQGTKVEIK
notes: source: Expi293F, transfected
B10: 0302-IN3_T65E (antibody, V domains shown)
VH: QVQLQQWGPGLVNPSETLSLTCSVSGGSFATENYYWSWIRQHPGEGLEWIGNIYFSGNEYYNPSLNNRFTISFDTSKNHLSLKLPSVTAADTAVYYCARGTIYFDISGYRRVDPFHIWGQGTMVIVSS
VL: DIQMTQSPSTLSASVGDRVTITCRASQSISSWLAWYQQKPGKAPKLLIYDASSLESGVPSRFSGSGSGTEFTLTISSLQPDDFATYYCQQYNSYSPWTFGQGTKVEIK
notes: source: Expi293F, transfected
B11: 0342-MN3_T65G (antibody, V domains shown)
VH: QVQLQQWGPGLVNPSETLSLTCSVSGGSFATENYYWSWIRQHPGEGLEWIGNIYFSGNGYYNPSLNNRFTISFDTSKNHLSLKLPSVTAADTAVYYCARGTIYFDMSGYRRVDPFHIWGQGTMVIVSS
VL: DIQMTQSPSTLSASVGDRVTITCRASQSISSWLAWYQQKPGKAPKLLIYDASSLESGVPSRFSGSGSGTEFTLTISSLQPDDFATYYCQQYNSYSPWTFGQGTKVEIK
notes: source: Expi293F, transfected
B12: 0311-IN3_T65P (antibody, V domains shown)
VH: QVQLQQWGPGLVNPSETLSLTCSVSGGSFATENYYWSWIRQHPGEGLEWIGNIYFSGNPYYNPSLNNRFTISFDTSKNHLSLKLPSVTAADTAVYYCARGTIYFDISGYRRVDPFHIWGQGTMVIVSS
VL: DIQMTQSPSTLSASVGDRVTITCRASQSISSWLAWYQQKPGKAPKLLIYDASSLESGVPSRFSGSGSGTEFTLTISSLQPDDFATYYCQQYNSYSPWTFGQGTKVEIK
notes: source: Expi293F, transfected
B13: 0301-IN3_T65D (antibody, V domains shown)
VH: QVQLQQWGPGLVNPSETLSLTCSVSGGSFATENYYWSWIRQHPGEGLEWIGNIYFSGNDYYNPSLNNRFTISFDTSKNHLSLKLPSVTAADTAVYYCARGTIYFDISGYRRVDPFHIWGQGTMVIVSS
VL: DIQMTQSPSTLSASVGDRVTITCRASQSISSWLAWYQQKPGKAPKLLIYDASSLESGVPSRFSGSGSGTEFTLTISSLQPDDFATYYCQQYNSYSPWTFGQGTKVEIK
notes: source: Expi293F, transfected
B14: 0337-LN3_T65Y (antibody, V domains shown)
VH: QVQLQQWGPGLVNPSETLSLTCSVSGGSFATENYYWSWIRQHPGEGLEWIGNIYFSGNYYYNPSLNNRFTISFDTSKNHLSLKLPSVTAADTAVYYCARGTIYFDLSGYRRVDPFHIWGQGTMVIVSS
VL: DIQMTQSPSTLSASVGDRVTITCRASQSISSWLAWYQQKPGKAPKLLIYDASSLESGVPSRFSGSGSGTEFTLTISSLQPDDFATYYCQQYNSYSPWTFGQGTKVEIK
notes: source: Expi293F, transfected
B15: 0389-YN3_T65R (antibody, V domains shown)
VH: QVQLQQWGPGLVNPSETLSLTCSVSGGSFATENYYWSWIRQHPGEGLEWIGNIYFSGNRYYNPSLNNRFTISFDTSKNHLSLKLPSVTAADTAVYYCARGTIYFDYSGYRRVDPFHIWGQGTMVIVSS
VL: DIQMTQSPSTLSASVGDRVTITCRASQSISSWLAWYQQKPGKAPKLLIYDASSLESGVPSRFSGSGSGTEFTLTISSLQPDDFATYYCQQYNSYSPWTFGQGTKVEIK
notes: source: Expi293F, transfected
B16: 0382-YN3_T65I (antibody, V domains shown)
VH: QVQLQQWGPGLVNPSETLSLTCSVSGGSFATENYYWSWIRQHPGEGLEWIGNIYFSGNIYYNPSLNNRFTISFDTSKNHLSLKLPSVTAADTAVYYCARGTIYFDYSGYRRVDPFHIWGQGTMVIVSS
VL: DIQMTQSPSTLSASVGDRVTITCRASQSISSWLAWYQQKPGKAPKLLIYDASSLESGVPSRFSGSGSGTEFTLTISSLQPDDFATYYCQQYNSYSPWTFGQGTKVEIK
notes: source: Expi293F, transfected
B17: 0306-IN3_T65I (antibody, V domains shown)
VH: QVQLQQWGPGLVNPSETLSLTCSVSGGSFATENYYWSWIRQHPGEGLEWIGNIYFSGNIYYNPSLNNRFTISFDTSKNHLSLKLPSVTAADTAVYYCARGTIYFDISGYRRVDPFHIWGQGTMVIVSS
VL: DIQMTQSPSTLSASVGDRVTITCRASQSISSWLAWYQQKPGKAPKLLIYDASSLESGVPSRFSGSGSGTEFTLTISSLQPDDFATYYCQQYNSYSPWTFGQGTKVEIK
notes: source: Expi293F, transfected
B18: 0305-IN3_T65H (antibody, V domains shown)
VH: QVQLQQWGPGLVNPSETLSLTCSVSGGSFATENYYWSWIRQHPGEGLEWIGNIYFSGNHYYNPSLNNRFTISFDTSKNHLSLKLPSVTAADTAVYYCARGTIYFDISGYRRVDPFHIWGQGTMVIVSS
VL: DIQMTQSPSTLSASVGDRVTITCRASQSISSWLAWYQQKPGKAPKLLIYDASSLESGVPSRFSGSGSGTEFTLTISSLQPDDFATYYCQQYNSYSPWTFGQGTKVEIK
notes: source: Expi293F, transfected
B19: 0332-LN3_T65R (antibody, V domains shown)
VH: QVQLQQWGPGLVNPSETLSLTCSVSGGSFATENYYWSWIRQHPGEGLEWIGNIYFSGNRYYNPSLNNRFTISFDTSKNHLSLKLPSVTAADTAVYYCARGTIYFDLSGYRRVDPFHIWGQGTMVIVSS
VL: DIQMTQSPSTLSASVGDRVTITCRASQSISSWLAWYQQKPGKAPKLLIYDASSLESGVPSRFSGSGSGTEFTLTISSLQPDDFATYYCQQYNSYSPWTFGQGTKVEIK
notes: source: Expi293F, transfected
B20: 0365-N3_T65L (antibody, V domains shown)
VH: QVQLQQWGPGLVNPSETLSLTCSVSGGSFATENYYWSWIRQHPGEGLEWIGNIYFSGNLYYNPSLNNRFTISFDTSKNHLSLKLPSVTAADTAVYYCARGTIYFDRSGYRRVDPFHIWGQGTMVIVSS
VL: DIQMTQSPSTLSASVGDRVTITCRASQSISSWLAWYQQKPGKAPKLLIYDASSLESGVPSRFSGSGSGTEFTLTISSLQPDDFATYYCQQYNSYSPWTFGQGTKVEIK
notes: source: Expi293F, transfected
B21: 0385-YN3_T65M (antibody, V domains shown)
VH: QVQLQQWGPGLVNPSETLSLTCSVSGGSFATENYYWSWIRQHPGEGLEWIGNIYFSGNMYYNPSLNNRFTISFDTSKNHLSLKLPSVTAADTAVYYCARGTIYFDYSGYRRVDPFHIWGQGTMVIVSS
VL: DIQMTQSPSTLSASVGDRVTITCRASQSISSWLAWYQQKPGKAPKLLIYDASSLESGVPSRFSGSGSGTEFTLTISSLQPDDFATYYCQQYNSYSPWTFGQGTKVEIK
notes: source: Expi293F, transfected
B22: 0303-IN3_T65F (antibody, V domains shown)
VH: QVQLQQWGPGLVNPSETLSLTCSVSGGSFATENYYWSWIRQHPGEGLEWIGNIYFSGNFYYNPSLNNRFTISFDTSKNHLSLKLPSVTAADTAVYYCARGTIYFDISGYRRVDPFHIWGQGTMVIVSS
VL: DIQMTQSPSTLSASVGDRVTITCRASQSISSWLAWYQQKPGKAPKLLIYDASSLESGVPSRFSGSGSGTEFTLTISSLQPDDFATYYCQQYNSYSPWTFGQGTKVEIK
notes: source: Expi293F, transfected
B23: 0387-YN3_T65P (antibody, V domains shown)
VH: QVQLQQWGPGLVNPSETLSLTCSVSGGSFATENYYWSWIRQHPGEGLEWIGNIYFSGNPYYNPSLNNRFTISFDTSKNHLSLKLPSVTAADTAVYYCARGTIYFDYSGYRRVDPFHIWGQGTMVIVSS
VL: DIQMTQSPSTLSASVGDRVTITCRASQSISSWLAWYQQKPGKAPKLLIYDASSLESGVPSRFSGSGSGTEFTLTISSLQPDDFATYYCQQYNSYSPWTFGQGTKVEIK
notes: source: Expi293F, transfected
B24: 0300-IN3_T65A (antibody, V domains shown)
VH: QVQLQQWGPGLVNPSETLSLTCSVSGGSFATENYYWSWIRQHPGEGLEWIGNIYFSGNAYYNPSLNNRFTISFDTSKNHLSLKLPSVTAADTAVYYCARGTIYFDISGYRRVDPFHIWGQGTMVIVSS
VL: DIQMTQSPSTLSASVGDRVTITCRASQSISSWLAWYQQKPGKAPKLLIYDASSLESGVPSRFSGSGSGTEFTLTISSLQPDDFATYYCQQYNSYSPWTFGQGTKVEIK
notes: source: Expi293F, transfected
B25: 0369-N3_T65Q (antibody, V domains shown)
VH: QVQLQQWGPGLVNPSETLSLTCSVSGGSFATENYYWSWIRQHPGEGLEWIGNIYFSGNQYYNPSLNNRFTISFDTSKNHLSLKLPSVTAADTAVYYCARGTIYFDRSGYRRVDPFHIWGQGTMVIVSS
VL: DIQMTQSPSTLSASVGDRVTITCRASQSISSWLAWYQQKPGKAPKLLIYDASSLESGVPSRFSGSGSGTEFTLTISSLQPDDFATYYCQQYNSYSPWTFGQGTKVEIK
notes: source: Expi293F, transfected

Columns and labels:
[1] = target: Omicron BA.1 spike protein ectodomain (BLI) (SARS-CoV-2 Omicron BA.1, strain); assay: BLI
[2] = target: D614G-Hexapro (WT) spike ectodomain (SARS-CoV-2 Wuhan-Hu-1 D614G, D614G); assay: BLI

| Binder | Kd [1] [nM] | koff [1] [s⁻¹] | kon [1] [M⁻¹ s⁻¹] | Kd [2] [nM] | koff [2] [s⁻¹] | kon [2] [M⁻¹ s⁻¹] |
| --- | --- | --- | --- | --- | --- | --- |
| B1 | 1.16 | 0.000413 | 356000 | 0.276 | 0.000291 | 1.06e+06 |
| B2 |  |  |  | 288 | 9.92e-05 | 344 |
| B3 | 10.6 | 0.000555 | 52400 | 89.3 | 2.62e-05 | 294 |
| B4 | 7.36 | 0.000758 | 103000 | 0.873 | 0.000516 | 591000 |
| B5 | 3.92 | 0.000364 | 93000 | 515 | 0.000134 | 261 |
| B6 | 68.7 | 0.00114 | 16600 |  |  |  |
| B7 | 15.2 | 0.000949 | 62500 |  |  |  |
| B8 |  |  |  | 830 | 0.00105 | 1270 |
| B9 | 11.7 | 0.000566 | 48500 | 146 | 4.17e-05 | 285 |
| B10 | 8.27 | 0.000634 | 76700 | 776 | 0.000163 | 210 |
| B11 | 8.08 | 0.000428 | 53000 | 69.1 | 0.000217 | 3140 |
| B12 | 10.9 | 0.000965 | 88200 | 200 | 0.000578 | 2890 |
| B13 | 6.38 | 0.000601 | 94200 | 306 | 6.75e-05 | 221 |
| B14 | 11.7 | 0.000305 | 26100 | 87.3 | 0.000393 | 4500 |
| B15 |  |  |  | 839 | 0.00107 | 1280 |
| B16 |  |  |  | 2690 | 0.000811 | 302 |
| B17 | 4.36 | 0.000517 | 119000 | 524 | 0.000136 | 259 |
| B18 | 2.89 | 0.000368 | 128000 | 387 | 9.99e-05 | 258 |
| B19 | 38.9 | 0.0018 | 46200 |  |  |  |
| B20 |  |  |  | 387 | 0.000123 | 318 |
| B21 |  |  |  | 9.93 | 0.00157 | 158000 |
| B22 | 6.04 | 0.000575 | 95200 | 0.129 | 0.000115 | 887000 |
| B23 | 9.21 | 9.1e-05 | 9880 |  |  |  |
| B24 | 3.61 | 0.000404 | 112000 |  |  | 210 |
| B25 |  |  |  | 65.4 | 0.000113 | 1730 |
